Patent publication US7951356B1, “Tissue factor compositions and kits for coagulation and tumor treatment” (Board of Regents, The University of Texas System, priority 1997, dated 2011)
Where a chain is given by its changes, count along the chain named. In names and notes the source's numbering stands.

B1: tTF219 (G164A): amino acid 164 (Gly) of tTF219 replaced by Ala; SEQ ID NO:9 (protein)
chain: SGTTNTVAAYNLTWKSTNFKTILEWEPKPVNQVYTVQISTKSGDWKSKCFYTTDTECDLTDEIVKDVKQTYLARVFSYPAGNVESTGSAGEPLYENSPEFTPYLETNLGQPTIQSFEQVGTKVNVTVEDERTLVRRNNTFLSLRDVFGKDLIYTLYYWKSSSSAKKTAKTNTNEFLIDVDKGENYCFSVQAVIPSRTVNRKSTDSPVECMGQEKGEFRE
B2: tTF219 (W158R): tryptophan at amino acid 158 of tTF219 mutated to an arginine; SEQ ID NO:8 (protein)
chain: B1 chain with W158R, A164G
B3: IgG-H6—N′-cys-tTF219 (conjugate)
chain: HHHHHHAMALVPRGSCGTTNTVAAYNLTWKSTNFKTILEWEPKPVNQVYTVQISTKSGDWKSKCFYTTDTECDLTDEIVKDVKQTYLARVFSYPAGNVESTGSAGEPLYENSPEFTPYLETNLGQPTIQSFEQVGTKVNVTVEDERTLVRRNNTFLSLRDVFGKDLIYTLYYWKSSSSGKKTAKTNTNEFLIDVDKGENYCFSVQAVIPSRTVNRKSTDSPVECMGQEKGEFRE
modifications: left off: large carriers
B4: Fab′-H6—N′-cys-tTF219 (conjugate)
chain: B3 chain
modifications: left off: another chain or arm of the molecule; large carriers

Legend:
[1] = test system: HT29 (human colorectal carcinoma) xenograft; experiment: Tumor necrosis in HT29 xenografts 24 hours after treatment (Example XII); type: in vivo, mouse; settings: 24 hours after intravenous injection; tumors 0.5 to 1.0 cm^3; FIG. 23
Experimental: For these studies, the inventors chose the HT29 (human colorectal carcinoma) xenograft tumor model. HT29 cells (10^7 cells/mouse) were subcutaneously injected into BALB/c nu/nu mice. Tumor dimensions were monitored and animals were treated when the tumor size was between 0.5 and 1.0 cm^3.
Animals were sacrificed 24 hours after treatment, perfused with saline and heparin and exsanguinated. Tumors and organs were collected, formalin fixed and histological sections were prepared. The average area of necrosis in sections of the tumors was quantified and calculated as a percentage of the total area of tumor on the section.

[2] = cited from earlier work
[3] = test system: citrated mouse plasma; experiment: In vitro coagulation assay: tTF constructs localized on A20 lymphoma cells via bispecific antibody B21-2/10H10; type: cell-based; settings: for coagulation times compared with tTF219 and Factor VIIa at the same concentrations: addition of Factor VIIa at 1 nM or greater, FIG. 22; for coagulation-inducing activity once localized on A20 cells via B21-2/10H10, in words (compared with tTF219): plasma coagulation
Experimental: This assay was used to verify that tTF, various derivatives and mutants thereof, and immunoglobulin-tTF conjugates acquire coagulation inducing activity once localized at a cell surface. A20 lymphoma cells (I-A^d positive) (2×10^6 cells/ml, 50 μl) were incubated for 1 h at room temperature with a bispecific antibody (50 μg/ml, 25 μl) consisting of a Fab′ arm of the B21-2 antibody directed against I-A^d linked to a Fab′ arm of the 10H10 antibody directed against a non-inhibitory epitope on tTF. The cells were washed at room temperature and varying concentrations of tTF, derivatives or mutants thereof, or immunoglobulin-tTF conjugates were added for 1 hour at room temperature. The bispecific antibody captures the tTF or tTF linked to immunoglobulin, bringing it into close approximation to the cell surface, where coagulation can proceed.
The cells were washed again at room temperature, resuspended in 75 μl of PBS and warmed to 37° C. […] The time for the first fibrin strands to form was recorded. Clotting time was plotted against tTF concentration and curves compared with standard curves prepared using standard tTF219 preparations.

[4] = Toxicity to mice of tTF mutants and Factor VIIa given separately; type: in vivo
[5] = test system: factor X; experiment: Factor Xa production assay (chromogenic substrate S-2765) with constructs localized on A20 cells; type: biochemical; settings: presence of Factors II, VII and IX, B21-2/10H10, FIG. 17
Experimental: The assay measures factor X to Xa conversion rate by means of a chromophore-generating substrate (S-2765) for factor Xa.
A20 cells (2×10^7 cells) were suspended in 10 ml medium containing 0.2% w/v sodium azide. To 2.5 ml cell suspension were added 6.8 μg of B21-2/10H10 “capture” bispecific antibody for 50 minutes at room temperature. The cells were washed and resuspended in 2.5 ml medium containing 0.2% w/v sodium azide. The tTF and immunoglobulin-tTF conjugates dissolved in the same medium were distributed in 100 μl volumes at a range of concentrations into wells of 96-well microtiter plates. To the wells was then added 100 μl of the cell/bispecific antibody suspension. The plates were incubated for 50 minutes at room temperature.
The plates were centrifuged, the supernatants were discarded and the cell pellets were resuspended in 250 μl of Wash Buffer (150 mM NaCl: 50 mM Tris-HCl, pH 8; 0.2% w/v bovine serum albumin). The cells were washed again and cells resuspended in 100 μl of a 12.5-fold dilution of Proplex T (Baxter, Inc.) containing Factors II, VII, IX and X in Dilution Buffer (Wash Buffer supplemented with 12.5 mM calcium chloride). Plates were incubated at 37° C. for 30 minutes. To each well was added Stop Solution (12.5 mM sodium ethylenediaminetetracetic acid (EDTA)) in wash buffer. Plates were centrifuged. […] The optical density of each solution was measured at 409 nm. […]

| Molecule | necrosis in tumor sections, in words [1] | coagulation times compared with tTF219 and Factor VIIa at the same concentrations [3] | coagulation-inducing activity once localized on A20 cells via B21-2/10H10, in words (compared with tTF219) [3] | toxicity to mice [4] | also measured |
| --- | --- | --- | --- | --- | --- |
| Factor VIIa: recombinant human Factor VIIa | some necrosis | – | – | – | half-life in vivo [2]: approximately two |
| B1 | some necrosis | only marginally slower coagulation times | Weak coagulation | practically non-toxic | – |
| B2 | – | only marginally slower coagulation times | Weak coagulation | practically non-toxic | – |
| B3 | – | – | – | – | concentration applied to the cells at which plasma coagulated in 50 seconds ([3]; A20 cells coated with B21-2/10H10, FIG. 5-8, 15): 5 nM; fold less active than tTF219 at inducing coagulation of plasma ([3]; localized on A20 cells via B21-2/10H10): 5 fold; fold less active than H6—N′-cys-tTF219 at inducing Xa formation [5]: 2 fold |
| B4 | – | – | – | – | activity at inducing Xa formation compared with H6—N′-cys-tTF219 [5]: as active as H6—N′-cys-tTF219 itself |
